The chains are these.
B1: HDV Ribozyme (parent)
chain: GGCCGGCAUGGUCCCAGCCUCCUCGCUGGCGCCGGCUGGGCAACAUUCCGAGGGGACCGUCCCCUCGGUAAUGGCGAAUGGGACCCA

The variants in the data set derive from B1. In words: self-cleavage, relative activity (ratio to wild type); higher = more cleavage; co-transcriptional.
On to C33U G59U, for which the self-cleavage turned out to be 0.855. For the variant G35C G54C, the self-cleavage was 0.17.

Take G34A A70U: the self-cleavage was found to be 0.132.

On to C36G C44A, for which the self-cleavage was determined as 0.128. Take G34U G50U: the self-cleavage came to 0.191. The figure for C36G G52C is 0.166. With C36G C85U, the self-cleavage was found to be 0.151. To G34A C61U belongs 0.213; to G35A G81A, 0.277; to G35U G68C, 0.4.

With G35A G38C, the self-cleavage is 0.0652. Turning to C36G C63G, the self-cleavage worked out at 0.212. With C36G C63A, the self-cleavage came to 0.269.

With G35A G59A, the self-cleavage was determined as 0.494. G35A G59U: the self-cleavage was 0.646. To G35A G59C belongs 0.61; to G35C G59A, 0.256; to G35U C85G, 0.356. Turning to G35U C85A, the self-cleavage is 0.373. To C36A G68A belongs 0.293.

Take C33U G82A: the self-cleavage worked out at 0.302. The figure for C36G C61A is 0.116; for G35U U79A it is 0.166. C36G G39C: the self-cleavage amounted to 0.232. To C36A C85U belongs 0.158.

For G34U A45U, the self-cleavage turned out to be 0.0378. As for G34U A42G, the self-cleavage stood at 0.0449. Consider C36G G73C, for which the self-cleavage was 0.185. For the variant C36G G73A, the self-cleavage came to 0.0723.

As for C36G C48G, the self-cleavage was 0. With G35C U47A, the self-cleavage is 0.0594. To C36A U46G belongs 0.123; to C36A G80U, 0.0825; to G35C C41A, 0.237.

For G35C C41G, the self-cleavage was found to be 0.161.

As for G35U A87G, the self-cleavage was found to be 0.257.

In the case of G34C C36A, the self-cleavage came out at 0.0707. Regarding G35U G52C, the self-cleavage worked out at 0.366.

In the case of G35C A45G, the self-cleavage was determined as 0.237. In the case of C33U C86A, the self-cleavage turned out to be 0.746. For G35C A43U, the self-cleavage was 0.0386. G34A U69C: the self-cleavage came out at 0.291. In the case of G35C G74U, the self-cleavage amounted to 0.133.

For G34C G52A, the self-cleavage is 0.17. Take G34U G82A: the self-cleavage stood at 0.123.

For the variant G34C U72C, the self-cleavage was 0.19. Regarding C36G A70U, the self-cleavage was found to be 0.119.

Turning to G34U C64U, the self-cleavage is 0.246. In the case of G35A C75U, the self-cleavage was 0.133. In the case of G35A C75A, the self-cleavage was found to be 0.151. Take G35A U60G: the self-cleavage was 0.554. To C36A C63A belongs 0.237; to G35C A83C, 0.162.

Regarding G35C A83G, the self-cleavage amounted to 0.237. To G35U G82A belongs 0.0841; to C33U G80U, 0.179. For C33U G80A, the self-cleavage stood at 0.12. To G35A G55C belongs 0.358. To G35A A71G belongs 0.464. To G35U C64U belongs 0.449. With C36G C62U, the self-cleavage was 0.246.

Regarding C36A G59C, the self-cleavage worked out at 0.0978. To G34C C44U belongs 0.0739; to G34C C49A, 0.249; to G34C C49U, 0.208. To C33U G39A belongs 0.182. To C36G G59U belongs 0.199. Take C36A U69G: the self-cleavage amounted to 0.161.

Take C36A A43G: the self-cleavage was 0.277. The figure for G35A U47A is 0.466; for G34U G52A it is 0.208; for G35C U69C it is 0.291. To G35C G73C belongs 0.269; to G34U C61A, 0.0608; to G34U G68A, 0.274. Consider G34C C48U, for which the self-cleavage turned out to be 0.17. To C33U G81U belongs 0.177. The figure for G35A C86A is 0.643; for G34A C62G it is 0.13; for G35A C48A it is 0.659. The figure for G34A G50A is 0.16.

For the variant C33U G67A, the self-cleavage was determined as 0.749. As to G35U A83C, the self-cleavage turned out to be 0.181. The figure for G35U A83G is 0.241. To G34U G53C belongs 0.136; to C36G U37A, 0.446. To G35U G40A belongs 0.304; to G35U G40U, 0.12; to C36G A77U, 0.177.

With G35C C63G, the self-cleavage is 0.0449. Regarding C36A A51G, the self-cleavage turned out to be 0.269.

Consider C36A A51C, for which the self-cleavage is 0.277.

Take C36A A51U: the self-cleavage came out at 0.17.

Consider C33U G74U, for which the self-cleavage was 0.41. To C33U G74C belongs 0.0339; to G34C G68C, 0.128; to C33U U46A, 0.434. The figure for G35A A70U is 0.62.

Regarding G34C G35C, the self-cleavage stood at 0.246. Turning to G35U C66G, the self-cleavage came out at 0.458.

As to G35U C66A, the self-cleavage was 0.332.

Consider G35C A51C, for which the self-cleavage was 0.297.

Turning to G35C A51G, the self-cleavage was 0.415. For the variant G35C C86G, the self-cleavage came to 0.0489. G35A A83C: the self-cleavage came out at 0.0692. To G34U G39U belongs 0.115; to G34U G39C, 0.111; to G35A C62U, 0.665. To G35A C62G belongs 0.448. The figure for G35U U69A is 0.212; for C36A G50C it is 0.113.

As to C36A C62G, the self-cleavage is 0.17.

On to G34C C41G, for which the self-cleavage was found to be 0.107. To G35U G73A belongs 0.0911; to G34A G38A, 0.0583. To G35C U79G belongs 0.214; to G34U C57G, 0.178.

Consider G34C G81A, for which the self-cleavage is 0.16.

Turning to G34A C86A, the self-cleavage was found to be 0.0683. As for G34C C61A, the self-cleavage worked out at 0.208. As for G35U A70G, the self-cleavage is 0.554. On to G35U A70U, for which the self-cleavage was found to be 0.496. Take C36A A87G: the self-cleavage stood at 0.125.

Take C36G A45C: the self-cleavage is 0.0504. The figure for C36G A45G is 0.185. The figure for G35U C49U is 0.554; for G34C A71C it is 0.201; for G34C A71G it is 0. To C33U G76A belongs 0.978; to G34U C49U, 0.136; to G34C G82C, 0.117. Take C36A G73C: the self-cleavage came out at 0.178. For G35C C44G, the self-cleavage is 0.145. The figure for C36G A78G is 0.0639; for C36G A78U it is 0.0346. Regarding G34U A78U, the self-cleavage was 0.121. To C33U U60C belongs 0.773; to G34C A78C, 0.0898. Regarding G34C A78G, the self-cleavage was determined as 0.0755. To G34A C41G belongs 0.141; to G35U U46G, 0.141.

As for G35U U46A, the self-cleavage came out at 0.116.

For the variant C36G C64G, the self-cleavage was determined as 0.156.

For the variant C36G C64U, the self-cleavage was 0.138. As to G34C G76A, the self-cleavage came to 0.163. To G35C C58G belongs 0.161; to G35C C58U, 0.231; to G35U G39C, 0. With C36G G81C, the self-cleavage came out at 0.0656. In the case of G35A G82U, the self-cleavage amounted to 0.241. The figure for G34U U37C is 0.148; for G34U U37A it is 0.158; for G35U G54C it is 0.517.

As to G34A G53A, the self-cleavage is 0.174.

Take G34A G54A: the self-cleavage was found to be 0.16. The figure for G34C G55C is 0.261. To G34C U69A belongs 0.0739; to G34U C44A, 0.0545. Take C36A A56C: the self-cleavage turned out to be 0.131. Take C36A A83C: the self-cleavage was determined as 0.0791. To G34C G53A belongs 0.229. To G34A G55A belongs 0.17. To G34A G55U belongs 0.192; to C36A C86A, 0.134. With G34C C62G, the self-cleavage came to 0.0639. For C36A C75U, the self-cleavage was 0.0963. Take G35A C64U: the self-cleavage amounted to 0.475.

Source of the values: the RNAGym collection of RNA variant scans (doi:10.7554/elife.80360).
